The values that follow come from the Human Domainome abundance scans (Beltran et al. 2025).

± gives the uncertainty stated by the source.

B1: Connector enhancer of kinase suppressor of ras 2, residues 9 to 71; numbered along this chain, Q8WXI2 (parent)
chain: SKWSPSQVVDWMKGLDDCLQQYIKNFEREKISGDQLLRITHQELEDLGVSRIGHQELILEAVD

The variants in the series derive from B1. As to the kind of experiment: abundance fitness (aPCA) (normalised: wild type 0, dead -1); higher = more abundant; growth selection in yeast, the domain comes from the species named. The note with it: Homo sapiens.
Take Q20E: the abundance fitness is -0.31 ± 0.043.

Consider Q20H, for which the abundance fitness is 0.049 ± 0.032.

For Q20K, the abundance fitness was -0.148 ± 0.025.

For the variant Q20R, the abundance fitness was -0.214 ± 0.024.

In the case of Q20A, the abundance fitness was -0.177 ± 0.028.

In the case of Q20G, the abundance fitness was -0.152 ± 0.023.

Consider Q20W, for which the abundance fitness is -0.133 ± 0.031.

Q20S: the abundance fitness is -0.148 ± 0.024.

Turning to Q20C, the abundance fitness is -0.325 ± 0.042.

Consider Q20Y, for which the abundance fitness was -0.204 ± 0.042.

On to Q20M, for which the abundance fitness is -0.17 ± 0.029.

For Q20I, the abundance fitness is -0.247 ± 0.063.

For Q20F, the abundance fitness is -0.179 ± 0.039.

For the variant Q20D, the abundance fitness is -0.259 ± 0.033.

Consider Q20P, for which the abundance fitness is -0.805 ± 0.051.

Turning to Q20L, the abundance fitness is -0.121 ± 0.023.

On to Q20N, for which the abundance fitness was -0.117 ± 0.043.

Consider D16I, for which the abundance fitness was -0.615 ± 0.038.

On to D16S, for which the abundance fitness is -0.402 ± 0.022.

As to D16V, the abundance fitness is -0.675 ± 0.032.

For the variant D16C, the abundance fitness is -0.72 ± 0.041.

D16G: the abundance fitness was -0.466 ± 0.028.

As to D16H, the abundance fitness is -0.358 ± 0.033.

Turning to D16L, the abundance fitness was -0.702 ± 0.035.

In the case of D16K, the abundance fitness was -0.632 ± 0.038.

Take D16Y: the abundance fitness is -0.667 ± 0.035.

On to D16N, for which the abundance fitness is -0.311 ± 0.033.

Take D16W: the abundance fitness is -0.527 ± 0.031.

In the case of D16R, the abundance fitness is -0.631 ± 0.025.

Consider D16F, for which the abundance fitness was -0.512 ± 0.031.

In the case of D16Q, the abundance fitness is -0.293 ± 0.042.

On to D16M, for which the abundance fitness was -0.669 ± 0.056.

D16E: the abundance fitness is -0.266 ± 0.044.

As to D16P, the abundance fitness is -0.047 ± 0.026.

With D16A, the abundance fitness is -0.408 ± 0.034.

In the case of Y22S, the abundance fitness was -0.742 ± 0.043.

Take Y22K: the abundance fitness is -0.578 ± 0.091.

Y22G: the abundance fitness was -0.702 ± 0.027.

As to Y22T, the abundance fitness was -0.653 ± 0.035.

As for Y22P, the abundance fitness is -0.753 ± 0.08.

On to Y22R, for which the abundance fitness was -0.728 ± 0.035.

With Y22E, the abundance fitness is -0.753 ± 0.06.

Turning to Y22N, the abundance fitness is -0.747 ± 0.062.

Y22I: the abundance fitness was -0.834 ± 0.085.

Regarding Y22D, the abundance fitness is -0.571 ± 0.037.

Consider Y22Q, for which the abundance fitness was -0.636 ± 0.062.

Regarding Y22W, the abundance fitness was -0.632 ± 0.06.

Consider Y22A, for which the abundance fitness is -0.863 ± 0.035.

Y22L: the abundance fitness is -0.899 ± 0.053.

In the case of Y22H, the abundance fitness was -0.542 ± 0.057.

On to Y22V, for which the abundance fitness is -0.806 ± 0.034.

Take D17F: the abundance fitness is -0.181 ± 0.076.

Regarding D17K, the abundance fitness is -0.186 ± 0.041.

Take D17C: the abundance fitness was -0.06 ± 0.063.

For D17W, the abundance fitness was -0.497 ± 0.045.

With D17Q, the abundance fitness is -0.091 ± 0.038.

Consider D17E, for which the abundance fitness was -0.018 ± 0.037.

On to D17V, for which the abundance fitness was -0.359 ± 0.028.

With D17A, the abundance fitness was -0.137 ± 0.025.

Take D17N: the abundance fitness was -0.075 ± 0.057.

D17Y: the abundance fitness was -0.203 ± 0.054.

Take D17L: the abundance fitness was -0.446 ± 0.027.

As to D17M, the abundance fitness was -0.268 ± 0.035.

Consider D17P, for which the abundance fitness is -0.051 ± 0.031.

Consider D17R, for which the abundance fitness was -0.184 ± 0.025.

In the case of D17I, the abundance fitness was -0.4 ± 0.043.

Take D17G: the abundance fitness is -0.104 ± 0.032.

On to W11P, for which the abundance fitness was -0.854 ± 0.066.

As to W11E, the abundance fitness is -0.59 ± 0.06.

As for W11K, the abundance fitness was -0.564 ± 0.046.

As to W11N, the abundance fitness was -0.674 ± 0.086.

For the variant W11L, the abundance fitness is -0.896 ± 0.041.

Take W11V: the abundance fitness was -0.749 ± 0.038.

Consider W11A, for which the abundance fitness was -0.95 ± 0.051.

W11R: the abundance fitness is -0.716 ± 0.024.

On to W11C, for which the abundance fitness is -0.834 ± 0.072.

W11I: the abundance fitness is -1 ± 0.11.

On to W11D, for which the abundance fitness was -0.65 ± 0.055.

As for W11Q, the abundance fitness was -0.681 ± 0.054.

With W11M, the abundance fitness is -0.943 ± 0.058.

Turning to W11F, the abundance fitness is -0.333 ± 0.048.

In the case of W11S, the abundance fitness was -0.782 ± 0.036.

Turning to W11H, the abundance fitness is -0.738 ± 0.049.

As to W11G, the abundance fitness is -0.675 ± 0.04.

Turning to W11Y, the abundance fitness was -0.425 ± 0.047.

With G14S, the abundance fitness was -0.005 ± 0.027.

For the variant G14I, the abundance fitness is -0.922 ± 0.13.

With G14A, the abundance fitness is -0.41 ± 0.034.

As for G14H, the abundance fitness was -0.468 ± 0.1.

For the variant G14E, the abundance fitness was -0.225 ± 0.034.

Consider G14L, for which the abundance fitness was -0.579 ± 0.031.

For G14Q, the abundance fitness was -0.196 ± 0.047.

Turning to G14K, the abundance fitness is -0.264 ± 0.045.

G14F: the abundance fitness was -1.06 ± 0.13.

G14M: the abundance fitness was -0.421 ± 0.043.

As to G14W, the abundance fitness is -0.986 ± 0.1.

With G14R, the abundance fitness is -0.3 ± 0.025.

Turning to G14Y, the abundance fitness is -1.04 ± 0.11.

Take G14V: the abundance fitness was -0.895 ± 0.053.

As for G14C, the abundance fitness is -0.34 ± 0.036.

D10E: the abundance fitness came out at 0.096 ± 0.029.

For the variant D10G, the abundance fitness was -0.122 ± 0.035.

D10I: the abundance fitness is -0.258 ± 0.042.

On to D10N, for which the abundance fitness was -0.087 ± 0.036.

For the variant D10R, the abundance fitness was -0.176 ± 0.031.

On to D10V, for which the abundance fitness is -0.327 ± 0.028.

Turning to D10M, the abundance fitness is -0.169 ± 0.031.

As to D10K, the abundance fitness is -0.161 ± 0.039.

Regarding D10T, the abundance fitness is -0.18 ± 0.027.

Regarding D10S, the abundance fitness was -0.127 ± 0.034.

Regarding D10L, the abundance fitness is -0.256 ± 0.017.

For D10F, the abundance fitness was -0.34 ± 0.041.

In the case of D10P, the abundance fitness was -0.929 ± 0.056.

Q21M: the abundance fitness is -0.102 ± 0.032.

Q21D: the abundance fitness was -0.095 ± 0.035.

Take Q21K: the abundance fitness was -0.204 ± 0.039.

For the variant Q21F, the abundance fitness was -0.539 ± 0.041.

Q21Y: the abundance fitness was -0.459 ± 0.066.

As to Q21N, the abundance fitness is -0.4 ± 0.041.

For Q21S, the abundance fitness is -0.118 ± 0.024.

Regarding Q21H, the abundance fitness was -0.257 ± 0.04.

Take Q21P: the abundance fitness turned out to be 0.038 ± 0.035.

Take Q21R: the abundance fitness was -0.144 ± 0.026.

Take Q21G: the abundance fitness is -0.032 ± 0.03.

For Q21C, the abundance fitness was -0.022 ± 0.048.

Q21L: the abundance fitness is -0.275 ± 0.025.

Take Q21V: the abundance fitness was -0.072 ± 0.024.

In the case of Q21E, the abundance fitness is -0.076 ± 0.037.

Turning to Q21I, the abundance fitness was -0.088 ± 0.043.

On to Q21W, for which the abundance fitness was -0.933 ± 0.062.

With I23K, the abundance fitness was -0.361 ± 0.058.

Consider I23G, for which the abundance fitness is -0.344 ± 0.024.

Consider I23N, for which the abundance fitness was -0.475 ± 0.044.

For the variant I23E, the abundance fitness was -0.412 ± 0.036.

As for I23A, the abundance fitness was 0.006 ± 0.027.

With I23Y, the abundance fitness was -0.447 ± 0.053.

As for I23P, the abundance fitness was -0.673 ± 0.059.

As for I23C, the abundance fitness is -0.014 ± 0.035.

In the case of I23F, the abundance fitness was -0.765 ± 0.092.

On to I23H, for which the abundance fitness was -0.393 ± 0.082.

In the case of I23R, the abundance fitness is -0.18 ± 0.021.

Turning to I23M, the abundance fitness was -0.34 ± 0.05.

Regarding I23D, the abundance fitness is -0.698 ± 0.07.

Take I23Q: the abundance fitness was -0.378 ± 0.044.

As to I23S, the abundance fitness is -0.247 ± 0.029.

Turning to I23L, the abundance fitness was -0.163 ± 0.028.

For I23V, the abundance fitness was -0.008 ± 0.023.

As for I23W, the abundance fitness is -0.313 ± 0.033.

As to M12P, the abundance fitness is -1 ± 0.068.

Regarding M12Q, the abundance fitness is -1.06 ± 0.087.

As for M12H, the abundance fitness was -0.766 ± 0.048.

Take M12F: the abundance fitness is -0.096 ± 0.035.

As to M12I, the abundance fitness is -0.165 ± 0.031.

For M12N, the abundance fitness was -1 ± 0.087.

On to M12G, for which the abundance fitness was -0.757 ± 0.037.

Turning to M12L, the abundance fitness is -0.188 ± 0.028.

As for M12T, the abundance fitness is -0.849 ± 0.072.

M12D: the abundance fitness was -0.706 ± 0.05.

In the case of M12Y, the abundance fitness is -0.386 ± 0.051.

Regarding M12K, the abundance fitness was -0.827 ± 0.095.

For the variant M12A, the abundance fitness is -0.658 ± 0.037.

As for M12R, the abundance fitness was -1.01 ± 0.052.

Consider M12V, for which the abundance fitness is -0.266 ± 0.024.

As for M12S, the abundance fitness is -0.8 ± 0.051.

Take F26S: the abundance fitness is -0.779 ± 0.025.

In the case of F26T, the abundance fitness is -0.774 ± 0.069.

Turning to F26Y, the abundance fitness is -0.908 ± 0.09.
